Reference: US20110262445A1 (CEPHALON AUSTRALIA, published 2011)
Positions count from the first letter of the chain named. Numbers in names are those of the source.

Legend:
human IL-23 [1] = biological target: T1, human IL-23 (human, UniProt P29460 23-328; Q9NPF7 20-189); assay: SPR screen, crude scFv captured via FLAG
T1 construct: Recombinant (Ebioscience); HIS-tagged in flow cytometry, biotinylated in some assays; also called hIL-23; rhIL-23
T1 sequence 1: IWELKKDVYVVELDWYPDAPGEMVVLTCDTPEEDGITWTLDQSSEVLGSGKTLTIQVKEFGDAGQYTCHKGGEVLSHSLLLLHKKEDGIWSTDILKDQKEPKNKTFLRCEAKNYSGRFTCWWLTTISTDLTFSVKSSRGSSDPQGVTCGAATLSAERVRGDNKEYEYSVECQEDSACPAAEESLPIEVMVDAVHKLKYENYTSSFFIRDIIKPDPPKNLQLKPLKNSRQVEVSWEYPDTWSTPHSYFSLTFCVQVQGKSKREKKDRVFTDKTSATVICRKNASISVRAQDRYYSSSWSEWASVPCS
T1 sequence 2: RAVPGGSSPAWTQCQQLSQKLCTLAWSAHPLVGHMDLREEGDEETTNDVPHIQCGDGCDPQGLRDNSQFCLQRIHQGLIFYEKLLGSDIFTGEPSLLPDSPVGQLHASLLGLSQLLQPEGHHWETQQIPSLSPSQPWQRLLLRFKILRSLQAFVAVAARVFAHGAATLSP
Procedure: Approximately 6500 individual scFvs recovered from the ribosome display reactions were expressed and screened for binding against IL-23 using a high-throughout SPR assay. The variants were ranked according to the kd and the best variants were sequenced at the nucleic acid level.
High-throughput SPR screening was conducted using a BIAcore A100 biosensor (GE Healthcare). Approximately 10 000 RU of the proprietary FLAG-specific capture molecule was immobilized on a CM5 Series S Sensor chip, using standard amine coupling chemistry on Spots 1 & 5 (outer spots) and 3,000RU to Spots 2 & 4 (inner spots) in each of the four flow cells of the BIAcore A100 Biosensor. The running buffer used was HBS-EP+ (BIAcore) and all interactions measured at 25° C. Crude periplasmic preparations of FLAG-tagged scFvs (prepared as described in the previous paragraph), were diluted two-fold in running buffer before capturing at a flow rate of 5u1/min for 60 sec. Approx. 100RU (on outer spots) and 50RU (on inner spots) of tagged scFv was captured. Following a 2 min stabilization period, IL-23 was passed over all spots of all four flow cells simultaneously at a flow rate of 30u1/min for 120 sec and dissociation monitored for 200 sec. Generated sensorgrams were referenced against the unmodified spot 3 of each flow cell, and fitted using a 1:1 Langmuir equation with R1 set to local to account for varying ligand densities to generate the kₐ, kd and KD values.

human IL-23 [2] = biological target: T1, human IL-23; assay: SPR, single 81 nM analyte, scFv via FLAG
human IL-12 = biological target: T2, human IL-12 (human, UniProt P29460 23-328; P29459 23-219); assay: ELISA, coated IL-12
T2 construct: Recombinant (Peprotech); FLAG-tagged IL-12 in the flow cytometry assays, biotinylated in the IL-12Rβ2 assay; also called hIL-12
T2 sequence 1: T1 sequence 1
T2 sequence 2: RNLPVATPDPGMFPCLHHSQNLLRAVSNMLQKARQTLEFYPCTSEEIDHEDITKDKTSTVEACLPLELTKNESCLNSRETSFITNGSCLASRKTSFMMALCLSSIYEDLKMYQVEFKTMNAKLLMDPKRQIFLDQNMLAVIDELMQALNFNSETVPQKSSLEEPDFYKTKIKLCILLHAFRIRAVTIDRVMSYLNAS
Method in brief: (§1)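 Binding values are absorbance readings. After cytokine (1 μg/mL, carbonate buffer pH 9.6) was coated onto Maxisorp plates overnight at 4° C and the plates were blocked with 1% BSA in PBS, antibody titrations were bound for 1 hour at 25° C and detected with HRP-linked goat anti-human IgG or anti-murine immunoglobulin (1:2000). Color from TMB, stopped with 1M HCl, was read at 450 nm with 620 nm as reference.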

human IL-23 [3] = biological target: T1, human IL-23; assay: ELISA, coated IL-23
Method in brief: as §1

B1: scFv AY-B2 (scFv)
scFv: QVQLVQSGAEVKKPGASVKVSCKASGYTFTDYYLHWVRQAPGQGLEWMGWIDPENGDTEYAPKFQGRVTVTTDTSTSTAYMELRSLRSDDTAVYYCNANKELRYFDVWGQGTMVTVSSGGGGSGGGGSGGGGSEIVMTQSPATLSVSPGERATLSCRASQSISINLHWYQQKPGQAPRLLIYFASQSISGIPARFSGSGSGTEFTLTISSLQSEDFAVYYCQQSNSFPLTFGGGTKVEIKR
notes: scFv-80 variant: VH M69V; not shown: proprietary C-terminal FLAG tag
koff (human IL-23 [1]): 0.0001 s⁻¹

B2: scFv CW-H1 (scFv)
scFv: B1 scFv with V70M, S185R
notes: scFv-80 variant: VL S52R; not shown: proprietary C-terminal FLAG tag
koff (human IL-23 [1]): 0.00016 s⁻¹

B3: scFv AZ-D8 (scFv)
scFv: B1 scFv with Y27C, V70M
notes: scFv-80 variant: VH Y27C; not shown: proprietary C-terminal FLAG tag
koff (human IL-23 [1]): 4.3e-05 s⁻¹

B4: scFv combo. # 14 (scFv)
scFv: B1 scFv with F29L, Q43R, V70M, I188T
notes: scFv-80 with VH F29L, Q43R; VL I55T; not shown: proprietary C-terminal FLAG tag
Kd (human IL-23 [2]): 0.079 nM | koff (human IL-23 [2]): 2.1e-05 s⁻¹ | kon (human IL-23 [2]): 270000 M⁻¹ s⁻¹

B5: scFv BZ-G10 (scFv)
scFv: B1 scFv with V70M, Q160R
notes: scFv-80 variant: VL Q27R; not shown: proprietary C-terminal FLAG tag
koff (human IL-23 [1]): 0.00036 s⁻¹

B6: scFv combo. # 13 (scFv)
scFv: B1 scFv with T28A, Q43R, V70M, I188T
notes: scFv-80 with VH T28A, Q43R; VL I55T; not shown: proprietary C-terminal FLAG tag
Kd (human IL-23 [2]): 0.051 nM | koff (human IL-23 [2]): 1.3e-05 s⁻¹ | kon (human IL-23 [2]): 250000 M⁻¹ s⁻¹

B7: scFv AY-G7 (scFv)
scFv: B1 scFv with V70M, Y219H
notes: scFv-80 variant: VL Y86H; not shown: proprietary C-terminal FLAG tag
koff (human IL-23 [1]): 0.00012 s⁻¹

B8: scFv CW-H7 (scFv)
scFv: B1 scFv with V70M, V146M
notes: scFv-80 variant: VL V13M; not shown: proprietary C-terminal FLAG tag
koff (human IL-23 [1]): 0.000278 s⁻¹

B9: scFv BY-B4 (scFv)
scFv: B1 scFv with T28A, V70M
notes: scFv-80 variant: VH T28A; not shown: proprietary C-terminal FLAG tag
koff (human IL-23 [1]): 0.00033 s⁻¹

B10: scFv CL-G7 (scFv)
scFv: B1 scFv with E10Q, V70M
notes: scFv-80 variant: VH E10Q; not shown: proprietary C-terminal FLAG tag
koff (human IL-23 [1]): 0.00012 s⁻¹

B11: scFv BV-B2 (scFv)
scFv: B1 scFv with V70M, D215G
notes: scFv-80 variant: VL D82G; not shown: proprietary C-terminal FLAG tag
koff (human IL-23 [1]): 0.00029 s⁻¹

B12: scFv CE-A6 (scFv)
scFv: B1 scFv with V70M, G197S
notes: scFv-80 variant: VL G64S; not shown: proprietary C-terminal FLAG tag
koff (human IL-23 [1]): 0.00033 s⁻¹

B13: Antibody 108 (antibody, human IgG1, kappa, V domains shown)
VH: EVQLVQSGAEVKKPGATVKISCKASGYTISDYYLHWVRQAPEKGLEWMGWIDPENGDTEYAPKFQGRVTITADTSTDTGYLELSSLRSEDTAVYYCAANKELRYFDVWGQGTLVTVSS
VL: DIQMTQSPSSVSASVGDRVTITCRASQSISINLHWYQQKPGKAPKLLIYFASQSISGVPSRFSGSGSGTDFSLTINSLQPEDFARYYCQQSNSFPLTFGGGTKVEIKR
binding result (human IL-12): binds | binding result (human IL-23 [3]): binds

B14: Antibody 110 (antibody, human IgG1, kappa, V domains shown)
VH: B13 VH with I29F, R38K
VL: B13 VL
binding result (human IL-12): binds | binding result (human IL-23 [3]): binds

B15: Antibody 122 (antibody, human IgG1, kappa, V domains shown)
VH: B13 VH with I29F, R87T
VL: B13 VL
binding result (human IL-12): binds | binding result (human IL-23 [3]): binds

B16: Antibody 118 (antibody, human IgG1, kappa, V domains shown)
VH: B13 VH with I29F, G79A
VL: B13 VL
binding result (human IL-12): binds | binding result (human IL-23 [3]): binds

B17: Antibody 113 (antibody, human IgG1, kappa, V domains shown)
VH: B13 VH with I29F, V68A
VL: B13 VL
binding result (human IL-12): binds | binding result (human IL-23 [3]): binds

B18: Antibody 121 (antibody, human IgG1, kappa, V domains shown)
VH: B13 VH with I29F, S84R
VL: B13 VL
binding result (human IL-12): binds | binding result (human IL-23 [3]): binds

B19: Antibody 116 (antibody, human IgG1, kappa, V domains shown)
VH: B13 VH with I29F, T76S
VL: B13 VL
binding result (human IL-12): binds | binding result (human IL-23 [3]): binds

B20: Antibody 114 (antibody, human IgG1, kappa, V domains shown)
VH: B13 VH with I29F, I70M
VL: B13 VL
binding result (human IL-12): binds | binding result (human IL-23 [3]): binds

B21: Antibody 109 (antibody, human IgG1, kappa, V domains shown)
VH: B13 VH with I29F, S30K
VL: B13 VL
binding result (human IL-12): binds | binding result (human IL-23 [3]): binds

B22: Antibody 112 (antibody, human IgG1, kappa, V domains shown)
VH: B13 VH with I29F, M48I
VL: B13 VL
binding result (human IL-12): binds | binding result (human IL-23 [3]): binds

B23: Antibody 124 (antibody, human IgG1, kappa)
heavy chain: not shown
light chain: DIQMTQSPSSVSASVGDRVTITCRASQSISINLHWYQQKPGKAPKLLIYFASQSISGVPSRFSGSGSGTDFSLTINSLQPEDFARYYCQQSNSFPLTFGGGTKVEIKRTVAAPSVFIFPPSDEQLKSGTASVVCLLNNFYPREAKVQWKVDNALQSGNSQESVTEQDSKDSTYSLSSTLTLSKADYEKHKVYACEVTHQGLSSPVTKSFNRGEC
binding result (human IL-12): binds | binding result (human IL-23 [3]): binds

B24: Antibody 115 (antibody, human IgG1, kappa, V domains shown)
VH: B13 VH with I29F, A72T
VL: B13 VL
binding result (human IL-12): binds | binding result (human IL-23 [3]): binds

B25: Antibody 123 (antibody, human IgG1, kappa, V domains shown)
VH: B13 VH with I29F, E89D
VL: B13 VL
binding result (human IL-12): binds | binding result (human IL-23 [3]): binds

B26: Antibody 117 (antibody, human IgG1, kappa, V domains shown)
VH: B13 VH with I29F, D77N
VL: B13 VL
binding result (human IL-12): binds | binding result (human IL-23 [3]): binds

B27: Antibody 120 (antibody, human IgG1, kappa, V domains shown)
VH: B13 VH with I29F, E82Q
VL: B13 VL
binding result (human IL-12): binds | binding result (human IL-23 [3]): binds

B28: Antibody 119 (antibody, human IgG1, kappa, V domains shown)
VH: B13 VH with I29F, L81M
VL: B13 VL
binding result (human IL-12): binds | binding result (human IL-23 [3]): binds
